Here are results for 38 sequences from the supplement of paper PMC7877785.

± gives the uncertainty stated by the source.

A short description of this data set: self-splicing fitness, log relative to wild type (ln ratio); higher = more splicing; Tetrahymena group I intron in knt gene, E. coli kanamycin selection, DiMSum; sequences stand for … in CUCUCU…GGAGGGAAAAGUUAUCAGGCAUGCACCUGGUAGCUAGUCUUUAAACCAAUAGAUUGCAUCGGUUUAAAAGGCAAGACCGUCAAAUUGCGGGAAAGGGGUCAACAGCCGUUCAGUACCAAGUCUCAGGGGAAACUUUGAGAUGGCCUUGCAAAGGGUAUGGUAAUAAGCUGACGGACAUGGUCCUAACCACGCAGCCAAGUCCUAAGUCAACAGAUCUUCUGUUGAUAUGGAUGCAGUUCACAGACUAAAUGUCGGUCGGGGAAGAUGUAUUCUUCUCAUAAGAUAUAGUCGGACCUCUCCUUAAUGGGAGCUAGCGGAUGAAGUGAUGCAACACUGGAGCCGCUGGGAACUAAUUUGUAUGCGAAAGUAUAUUGAUUAGUUUUGGAGUACUCGUGGUCG
The gist of the method:
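Colonies from six replicate transformations of E. coli BL21(DE3) were pooled and amplicon-sequenced on an Illumina HiSeq 2500. The library placed an intron with all eight P1ex-region nucleotides randomised inside the knt kanamycin-resistance gene on pET-22b(+), and cells grew overnight at 37°C or 30°C on LB agar with or without 25 μg/mL kanamycin (plus 100 μg/mL carbenicillin, 50 μM IPTG, 0.2% rhamnose). Fitness is the DiMSum error-weighted combination of wild-type-normalised replicate fold changes, kanamycin versus none.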

In the case of UAUAAGCAAUAUUACGUAGG, the “self-splicing fitness (ln)” value reads like this: (30 °C) -3 ± 0.27; (37 °C) -0.609 ± 0.27.
The corresponding values for UAUAAGCAAUAUUACGUAGU are -3.65 ± 0.25 and -2.07 ± 0.25.
Turning to UAUAAGCAAUAUUACGUAUC, the “self-splicing fitness (ln)” value by setting is: (30 °C) -1.88 ± 0.17; (37 °C) -2.03 ± 0.19.
The corresponding values for UAUAAGCAAUAUUACGUUAC are -3.45 ± 0.21 and -2.46 ± 0.23.
As to UAUAAGCAAUAUUACGUUCG, the “self-splicing fitness (ln)” value runs as follows: (30 °C) -0.846 ± 0.12; (37 °C) 0.0904 ± 0.17.
The matching figures for UAUAAGCAAUAUUACGUUUG: -1.84 ± 0.11 and -1.61 ± 0.14.
Take UAUCAGCAAUAUUACGAACA: the “self-splicing fitness (ln)” value is -0.0668 ± 0.089 (30 °C) and -0.206 ± 0.096 (37 °C).
As to UAUCAGCAAUAUUACGACAC, the “self-splicing fitness (ln)” value reads like this: (30 °C) -2.03 ± 0.2; (37 °C) 0.634 ± 0.23.
Turning to UAUCAGCAAUAUUACGACCG, the “self-splicing fitness (ln)” value by setting is: (30 °C) -0.12 ± 0.081; (37 °C) 0.738 ± 0.11.
The corresponding values for UAUCAGCAAUAUUACGAGCA are -0.827 ± 0.084 and -0.124 ± 0.11.
UAUCAGCAAUAUUACGAUCA: the “self-splicing fitness (ln)” value (30 °C) was -0.115 ± 0.11 and the “self-splicing fitness (ln)” value (37 °C) amounted to 0.19 ± 0.14.
The corresponding values for UAUCAGCAAUAUUACGAUCC are -1.32 ± 0.11 and 0.203 ± 0.13.
For the sequence UAUCAGCAAUAUUACGAUGA, the “self-splicing fitness (ln)” value was -0.667 ± 0.075 (30 °C) and 0.19 ± 0.099 (37 °C).
The matching figures for UAUCAGCAAUAUUACGAUGC: -3.83 ± 0.37 and -1.82 ± 0.22.
Take UAUCAGCAAUAUUACGAUUC: the “self-splicing fitness (ln)” value (30 °C) is -0.925 ± 0.081 and the “self-splicing fitness (ln)” value (37 °C) is -0.0952 ± 0.092.
UAUCAGCAAUAUUACGCACA: the “self-splicing fitness (ln)” value was -0.305 ± 0.087 (30 °C) and 0.32 ± 0.14 (37 °C).
For UAUCAGCAAUAUUACGCAUC, the “self-splicing fitness (ln)” value runs as follows: (30 °C) -1.87 ± 0.085; (37 °C) -0.409 ± 0.12.
As for UAUCAGCAAUAUUACGCCGC, the “self-splicing fitness (ln)” value reads like this: (30 °C) -1.58 ± 0.19; (37 °C) -2.02 ± 0.27.
The corresponding values for UAUCAGCAAUAUUACGGACA are 0.27 ± 0.15 and -0.681 ± 0.17.
Take UAUCAGCAAUAUUACGGCGA: the “self-splicing fitness (ln)” value was -0.382 ± 0.1 (30 °C) and 1.02 ± 0.13 (37 °C).
Turning to UAUCAGCAAUAUUACGGCUG, the “self-splicing fitness (ln)” value was -3.56 ± 0.2 (30 °C) and -1.78 ± 0.15 (37 °C).
The matching figures for UAUCAGCAAUAUUACGGGAG: -1.83 ± 0.087 and -1.17 ± 0.098.
The matching figures for UAUCAGCAAUAUUACGGGUC: -2.27 ± 0.12 and -1.3 ± 0.12.
The matching figures for UAUCAGCAAUAUUACGGGUG: -0.736 ± 0.044 and -0.102 ± 0.064.
As to UAUCAGCAAUAUUACGGUCC, the “self-splicing fitness (ln)” value runs as follows: (30 °C) -2.18 ± 0.13; (37 °C) -0.955 ± 0.19.
As for UAUCAGCAAUAUUACGGUGC, the “self-splicing fitness (ln)” value runs as follows: (30 °C) -3.27 ± 0.19; (37 °C) -1.14 ± 0.14.
UAUCAGCAAUAUUACGUCCC: the “self-splicing fitness (ln)” value runs as follows: (30 °C) -2.83 ± 0.34; (37 °C) 0.683 ± 0.26.
Regarding UAUCAGCAAUAUUACGUCUC, the “self-splicing fitness (ln)” value is, setting by setting: (30 °C) -2.46 ± 0.24; (37 °C) -1.13 ± 0.24.
The matching figures for UAUCAGCAAUAUUACGUCUU: -1.65 ± 0.082 and -0.155 ± 0.091.
The corresponding values for UAUCAGCAAUAUUACGUGUA are -0.198 ± 0.069 and 0.204 ± 0.079.
Take UAUCAGCAAUAUUACGUUCA: the “self-splicing fitness (ln)” value runs as follows: (30 °C) -0.267 ± 0.11; (37 °C) 0.345 ± 0.15.
As for UAUCAGCAAUAUUACGUUCG, the “self-splicing fitness (ln)” value (30 °C) is -0.844 ± 0.085 and the “self-splicing fitness (ln)” value (37 °C) is 0.113 ± 0.11.
The corresponding values for UAUCAGCAAUAUUACGUUCU are -2.22 ± 0.11 and -1.03 ± 0.13.
The corresponding values for UAUCAGCAAUAUUACGUUGA are -2.15 ± 0.18 and -1.95 ± 0.18.
Take UAUCAGCAAUAUUACGUUUG: the “self-splicing fitness (ln)” value is, setting by setting: (30 °C) -1.4 ± 0.068; (37 °C) -0.266 ± 0.092.
The corresponding values for UAUGAGCAAUAUUACGAACA are -2.47 ± 0.24 and -0.662 ± 0.14.
With UAUGAGCAAUAUUACGAUCC, the “self-splicing fitness (ln)” value (37 °C) was -3.06 ± 0.47.
Turning to UAUGAGCAAUAUUACGAUUA, the “self-splicing fitness (ln)” value runs as follows: (30 °C) -0.445 ± 0.094; (37 °C) 0.467 ± 0.093.
